Reference: patent US20080233118A1 (Novartis, published 2008)

Target: T1, human M-CSF (macrophage colony stimulating factor) (human, UniProt P09603 33-190, limits assumed)
T1 sequence: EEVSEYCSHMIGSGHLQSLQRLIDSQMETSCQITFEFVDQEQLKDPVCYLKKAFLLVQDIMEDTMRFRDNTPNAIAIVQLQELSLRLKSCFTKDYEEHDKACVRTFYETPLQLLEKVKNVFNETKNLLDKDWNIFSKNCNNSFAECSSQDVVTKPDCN
Assay: cell-based or functional assay

B1: M-CSF-specific murine antibody RX1 (antibody, V domains shown)
VH: DVQLQESGPGLVKPSQSLSLTCTVTDYSITSDYAWNWIRQFPGNKLEWMGYISYSGSTSYNPSLKSRISITRDTSKNQFFLQLNSVTTEDTATYYCASFDYAHAMDYWGQGTSVTVSS
VL: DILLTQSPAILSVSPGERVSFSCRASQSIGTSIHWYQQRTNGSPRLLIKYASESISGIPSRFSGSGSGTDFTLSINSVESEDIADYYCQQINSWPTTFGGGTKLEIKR
- EC50 of M-CSF neutralization: 2 ng/mL
